Ends that are not written are not given here. * marks the point of attachment. Biotin = O=C1N[C@H]2[C@H](CS[C@H]2CCCCC(=O)*)N1

T1: SCRIB-3/4 (MBP fusion of the third of the four PDZ domains of SCRIB) (human, UniProt Q14160-1 997-1093)
T1 construct: also called MBP-PDZ analyte SCRIB-3/4; source: E. coli BL21 DE3, purified (amylose column, Superdex 75 gel filtration)
T1 sequence (looked up): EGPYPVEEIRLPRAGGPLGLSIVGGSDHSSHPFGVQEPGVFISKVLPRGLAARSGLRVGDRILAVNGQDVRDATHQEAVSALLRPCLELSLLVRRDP

B1: MAS_05 (short peptide of Proto-oncogene Mas: GSGAG and the last five residues) (peptide)
peptide: Biotin-GSGAGVETVV
notes: also called MAS short; source: synthetic peptide (JPT Peptide Technologies)
B2: VANG2_05 (short peptide of Vang-like protein 2: GSGAG and the last five residues) (peptide)
peptide: Biotin-GSGAGSETSV
notes: also called VANG2 short; source: synthetic peptide (JPT Peptide Technologies)
B3: TMEM215_05 (short peptide of Transmembrane protein 215: GSGAG and the last five residues) (peptide)
peptide: Biotin-GSGAGHETIV
notes: also called TMEM215 short; source: synthetic peptide (JPT Peptide Technologies)
B4: VANG2_10 (long peptide of Vang-like protein 2: the last ten residues) (peptide)
peptide: Biotin-VMRLQSETSV
notes: also called VANG2 long; source: synthetic peptide (JPT Peptide Technologies)
B5: MARCH3_05 (short peptide of E3 ubiquitin-protein ligase MARCH3: GSGAG and the last five residues) (peptide)
peptide: Biotin-GSGAGKETVV
notes: also called MARCH3 short; source: synthetic peptide (JPT Peptide Technologies)
B6: MARCH3_10 (long peptide of E3 ubiquitin-protein ligase MARCH3: the last ten residues) (peptide)
peptide: Biotin-VKRNSKETVV
notes: also called MARCH3 long; source: synthetic peptide (JPT Peptide Technologies)
B7: TMEM215_10 (long peptide of Transmembrane protein 215: the last ten residues) (peptide)
peptide: Biotin-QGRWDHETIV
notes: also called TMEM215 long; source: synthetic peptide (JPT Peptide Technologies)
B8: ADAM17_10 (long peptide of Disintegrin and metalloproteinase domain-containing protein 17: the last ten residues) (peptide)
peptide: Biotin-NRVDSKETEC
notes: also called ADAM17 long; source: synthetic peptide (JPT Peptide Technologies)
B9: FZD4_05 (short peptide of Frizzled-4: GSGAG and the last five residues) (peptide)
peptide: Biotin-GSGAGSETVV
notes: also called FZD4 short; source: synthetic peptide (JPT Peptide Technologies)
B10: GLUT7_05 (short peptide of Solute carrier family 2, facilitated glucose transporter member 7: GSGAG and the last five residues) (peptide)
peptide: Biotin-GSGAGKETSF
notes: also called GLUT7 short; source: synthetic peptide (JPT Peptide Technologies)
B11: GLUT7_10 (long peptide of Solute carrier family 2, facilitated glucose transporter member 7: the last ten residues) (peptide)
peptide: Biotin-TASPAKETSF
notes: also called GLUT7 long; source: synthetic peptide (JPT Peptide Technologies)
B12: TANC1_05 (short peptide of Tetratricopeptide repeat, ankyrin repeat and coiled-coil domain-containing protein 1: GSGAG and the last five residues) (peptide)
peptide: Biotin-GSGAGIESNV
notes: also called TANC1 short; source: synthetic peptide (JPT Peptide Technologies)
B13: SCRIB-4/4 (MBP fusion of the fourth of the four PDZ domains of SCRIB) (domain or fragment)
chain: GLRELCIQKAPGERLGISIRGGARGHAGNPRDPTDEGIFISKVSPTGAAGRDGRLRVGLRLLEVNQQSLLGLTHGEAVQLLRSVGDTLTVLVCDGFE
notes: also called MBP-PDZ analyte SCRIB-4/4; source: E. coli BL21 DE3, purified (amylose column, Superdex 75 gel filtration)
B14: SCRIB-34/4 (MBP fusion of the tandem of the third and fourth PDZ domains of SCRIB) (domain or fragment)
chain: EGPYPVEEIRLPRAGGPLGLSIVGGSDHSSHPFGVQEPGVFISKVLPRGLAARSGLRVGDRILAVNGQDVRDATHQEAVSALLRPCLELSLLVRRDPAPPGLRELCIQKAPGERLGISIRGGARGHAGNPRDPTDEGIFISKVSPTGAAGRDGRLRVGLRLLEVNQQSLLGLTHGEAVQLLRSVGDTLTVLVCDGFE
notes: also called MBP-PDZ analyte SCRIB-34/4; tandem PDZ construct; source: E. coli BL21 DE3, purified (amylose column, Superdex 75 gel filtration)
B15: MAGI1-2/6 (MBP fusion of the second of the six PDZ domains of MAGI1) (domain or fragment)
chain: KPFFTRNPSELKGKFIHTKLRKSSRGFGFTVVGGDEPDEFLQIKSLVLDGPAALDGKMETGDVIVSVNDTCVLGHTHAQVVKIFQSIPIGASVDLELCRGYPLPFDPDDPNTSLVTSVAILDKEP
notes: source: E. coli BL21 DE3, purified (amylose column, Superdex 75 gel filtration)
B16: MAGI1-3/6 (MBP fusion of the third of the six PDZ domains of MAGI1) (domain or fragment)
chain: SHGYPNDTVSLASSIATQPELITVHIVKGPMGFGFTIADSPGGGGQRVKQIVDSPRCRGLKEGDLIVEVNKKNVQALTHNQVVDMLIECPKGSEVTLLVQRGGLPVPKKSPKSQPLERKDSQNSSQHSVSSHRSLHTASP
notes: as for B15
B17: PTEN_10 (long peptide of PTEN: the last ten residues) (peptide)
peptide: Biotin-EDQHTQITKV
notes: also called PTEN long; source: synthetic peptide (JPT Peptide Technologies)
B18: PTEN_05 (short peptide of PTEN: GSGAG and the last five residues) (peptide)
peptide: Biotin-GSGAGQITKV
notes: also called PTEN short; source: synthetic peptide (JPT Peptide Technologies)
B19: ATP1A1_05 (short peptide of Sodium/potassium-transporting ATPase subunit alpha-1: GSGAG and the last five residues) (peptide)
peptide: Biotin-GSGAGKETYY
notes: also called ATP1A1 short; source: synthetic peptide (JPT Peptide Technologies)
B20: GLAST_05 (short peptide of Excitatory amino acid transporter 1: GSGAG and the last five residues) (peptide)
peptide: Biotin-GSGAGSETKM
notes: also called GLAST short; source: synthetic peptide (JPT Peptide Technologies)
B21: ATP1A1_10 (long peptide of Sodium/potassium-transporting ATPase subunit alpha-1: the last ten residues) (peptide)
peptide: Biotin-GGWVEKETYY
notes: also called ATP1A1 long; source: synthetic peptide (JPT Peptide Technologies)
B22: CYSLTR2_10 (long peptide of Cysteinyl leukotriene receptor 2: the last ten residues) (peptide)
peptide: Biotin-SVWLRKETRV
notes: also called CYSLTR2 long; source: synthetic peptide (JPT Peptide Technologies)
B23: FZD4_10 (long peptide of Frizzled-4: the last ten residues) (peptide)
peptide: Biotin-KPGKGSETVV
notes: also called FZD4 long; source: synthetic peptide (JPT Peptide Technologies)
B24: ABC1_10 (long peptide of ATP-binding cassette sub-family A member 1: the last ten residues) (peptide)
peptide: Biotin-QDEKVKESYV
notes: also called ABC1 long; source: synthetic peptide (JPT Peptide Technologies)
B25: ABC1_05 (short peptide of ATP-binding cassette sub-family A member 1: GSGAG and the last five residues) (peptide)
peptide: Biotin-GSGAGKESYV
notes: also called ABC1 short; source: synthetic peptide (JPT Peptide Technologies)
B26: DLL1_10 (long peptide of Delta-like protein 1: the last ten residues) (peptide)
peptide: Biotin-KDECVIATEV
notes: also called DLL1 long; source: synthetic peptide (JPT Peptide Technologies)
B27: ARHGAP6_05 (short peptide of Rho GTPase-activating protein 6: GSGAG and the last five residues) (peptide)
peptide: Biotin-GSGAGPETLV
notes: also called ARHGAP6 short; source: synthetic peptide (JPT Peptide Technologies)
B28: NET1_05 (short peptide of Neuroepithelial cell-transforming gene 1 protein: GSGAG and the last five residues) (peptide)
peptide: Biotin-GSGAGKETLV
notes: also called NET1 short; source: synthetic peptide (JPT Peptide Technologies)
B29: NET1_10 (long peptide of Neuroepithelial cell-transforming gene 1 protein: the last ten residues) (peptide)
peptide: Biotin-SGGKRKETLV
notes: also called NET1 long; source: synthetic peptide (JPT Peptide Technologies)
B30: ARHGAP6_10 (long peptide of Rho GTPase-activating protein 6: the last ten residues) (peptide)
peptide: Biotin-NPDALPETLV
notes: also called ARHGAP6 long; source: synthetic peptide (JPT Peptide Technologies)
B31: DLL1_05 (short peptide of Delta-like protein 1: GSGAG and the last five residues) (peptide)
peptide: Biotin-GSGAGIATEV
notes: also called DLL1 short; source: synthetic peptide (JPT Peptide Technologies)

The target of the first assay is T1, SCRIB-3/4 (MBP fusion of the third of …). Put plainly: SPR. The settings on record: both partners purified.
In the case of B1, the Kd (commonly the free concentration of one partner at which half of the binding sites on the other are occupied at equilibrium, for simple one-to-one binding) is 158 µM.
The same measure, in the same setting: for B2 the value was 24 µM; for B3, 213 µM; for B4, 12 µM.
B5 yielded a Kd of 46 µM.
Same read-out and setting: for B6 the value was 100 µM; for B7, 128 µM; for B8, 97 µM.

The target of the next assay is B15. Put plainly: SPR. Conditions: both partners purified.
Regarding B1, the Kd came to 2740 µM.
In turn, B9 showed a Kd of 146 µM.
The molecule B5 had a Kd of 225 µM.
The same measure, in the same setting: the figure for B6 is 103 µM.

The target of another assay is B14. Put plainly: SPR. The settings on record: both partners purified.
On to B1, for which the affinity, expressed as Kd, was 16 µM.
Turning to B2, binding was put at a Kd of 4 µM.
B3 showed a Kd of 15 µM.
On the same count and under the same terms, the figure for B4 is 5 µM.
Still for that read-out and setting: for B5 the value was 7 µM; for B6, 16 µM; for B7, 9 µM.

Another assay has as its target B16. Put plainly: SPR. The settings on record: both partners purified.
On to B1, for which the Kd came to 90 µM.
Still for that read-out and setting: the figure for B3 is 116 µM.
B6 showed a Kd of 686 µM.
On the same count and under the same terms, the figure for B7 is 67 µM.

The target of a further assay is T1, SCRIB-3/4 (MBP fusion of the third of …). Put plainly: SPR. Conditions: both partners purified. This is another data set of the same source.
With B10, the Kd came out at 56 µM.
The same measure, in the same setting: for B11 the value was 45 µM; for B12, 498 µM.

Another assay has as its target T2, TAX1_05 (short peptide of the Trans-activating transcriptional regulatory protein of HTLV-1: GSGAG a (HTLV-1A, biotin at N-terminus)).
T2 construct: source: synthetic peptide (JPT Peptide Technologies)
Put plainly: SPR. Conditions: both partners purified.
Consider B13, for which the Kd amounted to 50 µM.
Molecule B14 yielded a Kd of 1 µM.
In the case of B15, the Kd was 33 µM.
Same read-out and setting: for B16 the value was 75 µM.

A further assay addresses B14. Put plainly: SPR. Conditions: both partners purified. This is another data set of the same source.
B10 returned a Kd of 5 µM.
The same measure, in the same setting: the figure for B11 is 5 µM; for B12 it is 9 µM.

Another assay deals with B16. Put plainly: SPR. Conditions: both partners purified. The source holds these as a separate data set.
Regarding B17, binding was put at a Kd of 144 µM.
The same measure, in the same setting: for B18 the value was 453 µM; for B12, 14 µM.

The next assay has as its target T1, SCRIB-3/4 (MBP fusion of the third of …). Put plainly: SPR. Conditions: both partners purified. This is another data set of the same source.
In turn, B19 registered a Kd of 1280 µM.
For the molecule B20, the Kd was found to be 182 µM.
Take B21: the Kd came to 88 µM.
Turning to B22, the Kd was found to be 34 µM.
Regarding B8, the Kd was found to be 79 µM.

The target of a further assay is B15. Put plainly: SPR. The settings on record: both partners purified. This is another data set of the same source.
In turn, B22 came in with a Kd of 4 µM.
The same measure, in the same setting: for B23 the value was 23 µM.

The next assay has as its target B14. Put plainly: SPR. Conditions: both partners purified. The source holds these as a separate data set.
B20: the Kd was 179 µM.
Turning to B22, the affinity, expressed as Kd, was 15 µM.
B8 returned a Kd of 8 µM.

The target in another assay is T1, SCRIB-3/4 (MBP fusion of the third of …). Put plainly: SPR. Conditions: both partners purified. The source holds these as a separate data set.
As to B24, the Kd was 107 µM.
Regarding B25, binding was characterised by a dissociation constant (Kd) of 229 µM.
On the same count and under the same terms, for B26 the value was 172 µM.
B27 showed a Kd of 216 µM.
Still for that read-out and setting: for B28 the value was 308 µM.
The same measure, in the same setting: the figure for B29 is 217 µM; for B30 it is 541 µM.
On the same count and under the same terms, for B31 the value was 200 µM.

For a further assay, the target named is B15. Put plainly: SPR. The settings on record: both partners purified. This is another data set of the same source.
B24 displayed a Kd of 45 µM.
Same read-out and setting: for B25 the value was 91 µM.
For the molecule B27, binding was characterised by a dissociation constant (Kd) of 2000 µM.
Regarding B28, the affinity, expressed as Kd, was 62 µM.
B29 returned a Kd of 3 µM.
The molecule B30 came in with a Kd of 18 µM.
Still for that read-out and setting: for B31 the value was 32 µM.

Another assay addresses B14. Put plainly: SPR. The settings on record: both partners purified. This is another data set of the same source.
For B24, the Kd worked out at 8 µM.
B25 returned a Kd of 10 µM.
For B27, the affinity, expressed as Kd, was 31 µM.
B28: binding was put at a Kd of 15 µM.
Still for that read-out and setting: for B29 the value was 63 µM; for B30, 28 µM.

For the next assay, the target named is B16. Put plainly: SPR. The settings on record: both partners purified. The source holds these as a separate data set.
Take B24: binding was put at a Kd of 20 µM.
The same measure, in the same setting: for B25 the value was 26 µM; for B26, 238 µM.
Molecule B27 came in with a Kd of 58 µM.
On the same count and under the same terms, the figure for B28 is 23 µM; for B29 it is 37 µM; for B30 it is 41 µM.
As to B31, the Kd is 246 µM.

For another assay, the target named is T3, 16E6_05 (short peptide of HPV16 early protein E6: GSGAG and the last five residues) (human papilloma virus 16, biotin at N-terminus).
T3 construct: also called 16E6 short; source: synthetic peptide (JPT Peptide Technologies)
Put plainly: SPR. The settings on record: both partners purified.
Consider B14, for which the Kd came to 1 µM.
On the same count and under the same terms, for B15 the value was 7 µM.

These data come from article PMC3206016, “Putting into Practice Domain-Linear Motif Interaction Predictions for Exploration of Protein Networks” (PLoS ONE, 2011).
